# Laboratory results reported in IntAct's records for PubMed 35512704.
# B1: Speckle-type POZ protein (Homo sapiens), O43791 (parent)
# chain: MSRVPSPPPPAEMSSGPVAESWCYTQIKVVKFSYMWTINNFSFCREEMGEVIKSSTFSSGANDKLKWCLRVNPKGLDEESKDYLSLYLLLVSCPKSEVRAKFKFSILNAKGEETKAMESQRAYRFVQGKDWGFKKFIRRDFLLDEANGLLPDDKLTLFCEVSVVQDSVNISGQNTMNMVKVPECRLADELGGLWENSRFTDCCLCVAGQEFQAHKAILAARSPVFSAMFEHEMEESKKNRVEINDVEPEVFKEMMCFIYTGKAPNLDKMADDLLAAADKYALERLKVMCEDALCSNLSVENAAEILILADLHSADQLKTQAVDFINYHASDVLETSGWKSMVVSHPHLVAEAYRSLASAQCPFLGPPRKRLKQS
# Variants of: B1
# Conditions: with mk10_human MAPK10, P53779
row,Variant,effect of a mutation on the interaction
1,F102C,with no effect

# Variants of: B1
# Conditions: with mk14_human MAPK14, Q16539
row,Variant,effect of a mutation on the interaction
1,F102C,with no effect

# Variants of: B1
# Conditions: with mk03_human MAPK3, P27361
# mk03_human MAPK3, P27361, sequence (P27361 whole entry): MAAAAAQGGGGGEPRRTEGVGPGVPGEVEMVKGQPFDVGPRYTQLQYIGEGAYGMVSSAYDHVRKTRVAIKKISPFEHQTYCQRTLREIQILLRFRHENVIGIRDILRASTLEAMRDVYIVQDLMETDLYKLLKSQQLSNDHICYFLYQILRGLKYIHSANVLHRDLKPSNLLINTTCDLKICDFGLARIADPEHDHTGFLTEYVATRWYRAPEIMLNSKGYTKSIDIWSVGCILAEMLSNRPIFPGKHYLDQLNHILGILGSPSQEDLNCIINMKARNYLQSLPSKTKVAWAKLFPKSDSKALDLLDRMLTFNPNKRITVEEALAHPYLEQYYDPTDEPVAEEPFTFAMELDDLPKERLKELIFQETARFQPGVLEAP
row,Variant,effect of a mutation on the interaction
1,F102C,with no effect

# Variants of: B1
# Conditions: with mk04_human MAPK4, P31152
row,Variant,effect of a mutation on the interaction
1,F102C,with no effect

# Variants of: B1
# Conditions: with mk06_human MAPK6, Q16659
row,Variant,effect of a mutation on the interaction
1,F102C,with no effect

# Variants of: B1
# Conditions: with sin1_human MAPKAP1, Q9BPZ7
row,Variant,effect of a mutation on the interaction
1,F102C,with no effect

# Variants of: B1
# Conditions: with mcl1_human MCL1, Q07820
row,Variant,effect of a mutation on the interaction
1,F102C,with no effect

# Variants of: B1
# Conditions: with mdm2_human MDM2, Q00987
row,Variant,effect of a mutation on the interaction
1,F102C,with no effect

# Variants of: B1
# Conditions: with mef2a_human MEF2A
row,Variant,effect of a mutation on the interaction
1,F102C,with no effect

# Variants of: B1
# Conditions: with mitf_human MITF
row,Variant,effect of a mutation on the interaction
1,F102C,with no effect

# Variants of: B1
# Conditions: with mtor_human MTOR
row,Variant,effect of a mutation on the interaction
1,F102C,with no effect

# Variants of: B1
# Conditions: with mybb_human MYBL2, P10244
row,Variant,effect of a mutation on the interaction
1,F102C,with no effect

# Variants of: B1
# Conditions: with myc_human MYC
row,Variant,effect of a mutation on the interaction
1,F102C,with no effect

# Variants of: B1
# Conditions: with mycn_human MYCN
row,Variant,effect of a mutation on the interaction
1,F102C,with no effect

# Variants of: B1
# Conditions: with ncoa3_human NCOA3, Q9Y6Q9
row,Variant,effect of a mutation on the interaction
1,F102C,with no effect

# Variants of: B1
# Conditions: with ikba_human NFKBIA
row,Variant,effect of a mutation on the interaction
1,F102C,with no effect

# Variants of: B1
# Conditions: with nox1_human NOX1, Q9Y5S8
row,Variant,effect of a mutation on the interaction
1,F102C,with no effect

# Variants of: B1
# Conditions: with ntrk2_human NTRK2, Q16620
row,Variant,effect of a mutation on the interaction
1,F102C,with no effect

# Variants of: B1
# Conditions: with ntrk3_human NTRK3, Q16288
row,Variant,effect of a mutation on the interaction
1,F102C,with no effect

# Variants of: B1
# Conditions: with pak3_human PAK3, O75914
row,Variant,effect of a mutation on the interaction
1,F102C,with no effect

# Variants of: B1
# Conditions: with prkn_human PRKN
row,Variant,effect of a mutation on the interaction
1,F102C,with no effect

# Variants of: B1
# Conditions: with pcbp1_human PCBP1, Q15365
row,Variant,effect of a mutation on the interaction
1,F102C,with no effect

# Variants of: B1
# Conditions: with pdcd1_human PDCD1, Q15116
# pdcd1_human PDCD1, Q15116, sequence (Q15116 whole entry): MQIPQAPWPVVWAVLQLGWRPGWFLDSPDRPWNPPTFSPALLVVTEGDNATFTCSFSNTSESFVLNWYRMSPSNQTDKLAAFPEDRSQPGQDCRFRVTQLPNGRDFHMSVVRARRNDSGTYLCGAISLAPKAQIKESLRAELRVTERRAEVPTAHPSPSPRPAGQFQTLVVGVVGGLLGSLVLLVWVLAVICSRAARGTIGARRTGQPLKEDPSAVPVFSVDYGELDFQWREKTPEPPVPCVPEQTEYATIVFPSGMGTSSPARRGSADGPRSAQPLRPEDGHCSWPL
row,Variant,effect of a mutation on the interaction
1,F102C,with no effect

# Variants of: B1
# Conditions: with pgfrb_human PDGFRB
row,Variant,effect of a mutation on the interaction
1,F102C,with no effect

# Variants of: B1
# Conditions: with pdk1_human PDK1, Q15118
row,Variant,effect of a mutation on the interaction
1,F102C,with no effect

# Variants of: B1
# Conditions: with PIK3C2B
row,Variant,effect of a mutation on the interaction
1,F102C,with no effect

# Variants of: B1
# Conditions: with pk3ca_human PIK3CA
row,Variant,effect of a mutation on the interaction
1,F102C,with no effect

# Variants of: B1
# Conditions: with pk3cb_human PIK3CB
row,Variant,effect of a mutation on the interaction
1,F102C,with no effect

# Variants of: B1
# Conditions: with pk3cg_human PIK3CG
row,Variant,effect of a mutation on the interaction
1,F102C,with no effect

# Variants of: B1
# Conditions: with p85b_human PIK3R2, O00459
row,Variant,effect of a mutation on the interaction
1,F102C,with no effect

# Variants of: B1
# Conditions: with dpod1_human POLD1, P28340
row,Variant,effect of a mutation on the interaction
1,F102C,with no effect

# Variants of: B1
# Conditions: with dpoe1_human POLE
row,Variant,effect of a mutation on the interaction
1,F102C,with no effect

# Variants of: B1
# Conditions: with ppard_human PPARD
row,Variant,effect of a mutation on the interaction
1,F102C,with no effect

# Variants of: B1
# Conditions: with prdm1_human PRDM1, O75626
row,Variant,effect of a mutation on the interaction
1,F102C,with no effect

# Variants of: B1
# Conditions: with prex2_human PREX2, Q70Z35
row,Variant,effect of a mutation on the interaction
1,F102C,with no effect

# Variants of: B1
# Conditions: with aapk2_human PRKAA2, P54646
row,Variant,effect of a mutation on the interaction
1,F102C,with no effect

# Variants of: B1
# Conditions: with prss8_human PRSS8, Q16651
row,Variant,effect of a mutation on the interaction
1,F102C,with no effect

# Variants of: B1
# Conditions: with tf65_human RELA
row,Variant,effect of a mutation on the interaction
1,F102C,with no effect

# Variants of: B1
# Conditions: with rictr_human RICTOR
row,Variant,effect of a mutation on the interaction
1,F102C,with no effect

# Variants of: B1
# Conditions: with rnf43_human RNF43, Q68DV7
row,Variant,effect of a mutation on the interaction
1,F102C,with no effect

# Variants of: B1
# Conditions: with ros1_human ROS1, P08922
# ros1_human ROS1, P08922, sequence (P08922 whole entry): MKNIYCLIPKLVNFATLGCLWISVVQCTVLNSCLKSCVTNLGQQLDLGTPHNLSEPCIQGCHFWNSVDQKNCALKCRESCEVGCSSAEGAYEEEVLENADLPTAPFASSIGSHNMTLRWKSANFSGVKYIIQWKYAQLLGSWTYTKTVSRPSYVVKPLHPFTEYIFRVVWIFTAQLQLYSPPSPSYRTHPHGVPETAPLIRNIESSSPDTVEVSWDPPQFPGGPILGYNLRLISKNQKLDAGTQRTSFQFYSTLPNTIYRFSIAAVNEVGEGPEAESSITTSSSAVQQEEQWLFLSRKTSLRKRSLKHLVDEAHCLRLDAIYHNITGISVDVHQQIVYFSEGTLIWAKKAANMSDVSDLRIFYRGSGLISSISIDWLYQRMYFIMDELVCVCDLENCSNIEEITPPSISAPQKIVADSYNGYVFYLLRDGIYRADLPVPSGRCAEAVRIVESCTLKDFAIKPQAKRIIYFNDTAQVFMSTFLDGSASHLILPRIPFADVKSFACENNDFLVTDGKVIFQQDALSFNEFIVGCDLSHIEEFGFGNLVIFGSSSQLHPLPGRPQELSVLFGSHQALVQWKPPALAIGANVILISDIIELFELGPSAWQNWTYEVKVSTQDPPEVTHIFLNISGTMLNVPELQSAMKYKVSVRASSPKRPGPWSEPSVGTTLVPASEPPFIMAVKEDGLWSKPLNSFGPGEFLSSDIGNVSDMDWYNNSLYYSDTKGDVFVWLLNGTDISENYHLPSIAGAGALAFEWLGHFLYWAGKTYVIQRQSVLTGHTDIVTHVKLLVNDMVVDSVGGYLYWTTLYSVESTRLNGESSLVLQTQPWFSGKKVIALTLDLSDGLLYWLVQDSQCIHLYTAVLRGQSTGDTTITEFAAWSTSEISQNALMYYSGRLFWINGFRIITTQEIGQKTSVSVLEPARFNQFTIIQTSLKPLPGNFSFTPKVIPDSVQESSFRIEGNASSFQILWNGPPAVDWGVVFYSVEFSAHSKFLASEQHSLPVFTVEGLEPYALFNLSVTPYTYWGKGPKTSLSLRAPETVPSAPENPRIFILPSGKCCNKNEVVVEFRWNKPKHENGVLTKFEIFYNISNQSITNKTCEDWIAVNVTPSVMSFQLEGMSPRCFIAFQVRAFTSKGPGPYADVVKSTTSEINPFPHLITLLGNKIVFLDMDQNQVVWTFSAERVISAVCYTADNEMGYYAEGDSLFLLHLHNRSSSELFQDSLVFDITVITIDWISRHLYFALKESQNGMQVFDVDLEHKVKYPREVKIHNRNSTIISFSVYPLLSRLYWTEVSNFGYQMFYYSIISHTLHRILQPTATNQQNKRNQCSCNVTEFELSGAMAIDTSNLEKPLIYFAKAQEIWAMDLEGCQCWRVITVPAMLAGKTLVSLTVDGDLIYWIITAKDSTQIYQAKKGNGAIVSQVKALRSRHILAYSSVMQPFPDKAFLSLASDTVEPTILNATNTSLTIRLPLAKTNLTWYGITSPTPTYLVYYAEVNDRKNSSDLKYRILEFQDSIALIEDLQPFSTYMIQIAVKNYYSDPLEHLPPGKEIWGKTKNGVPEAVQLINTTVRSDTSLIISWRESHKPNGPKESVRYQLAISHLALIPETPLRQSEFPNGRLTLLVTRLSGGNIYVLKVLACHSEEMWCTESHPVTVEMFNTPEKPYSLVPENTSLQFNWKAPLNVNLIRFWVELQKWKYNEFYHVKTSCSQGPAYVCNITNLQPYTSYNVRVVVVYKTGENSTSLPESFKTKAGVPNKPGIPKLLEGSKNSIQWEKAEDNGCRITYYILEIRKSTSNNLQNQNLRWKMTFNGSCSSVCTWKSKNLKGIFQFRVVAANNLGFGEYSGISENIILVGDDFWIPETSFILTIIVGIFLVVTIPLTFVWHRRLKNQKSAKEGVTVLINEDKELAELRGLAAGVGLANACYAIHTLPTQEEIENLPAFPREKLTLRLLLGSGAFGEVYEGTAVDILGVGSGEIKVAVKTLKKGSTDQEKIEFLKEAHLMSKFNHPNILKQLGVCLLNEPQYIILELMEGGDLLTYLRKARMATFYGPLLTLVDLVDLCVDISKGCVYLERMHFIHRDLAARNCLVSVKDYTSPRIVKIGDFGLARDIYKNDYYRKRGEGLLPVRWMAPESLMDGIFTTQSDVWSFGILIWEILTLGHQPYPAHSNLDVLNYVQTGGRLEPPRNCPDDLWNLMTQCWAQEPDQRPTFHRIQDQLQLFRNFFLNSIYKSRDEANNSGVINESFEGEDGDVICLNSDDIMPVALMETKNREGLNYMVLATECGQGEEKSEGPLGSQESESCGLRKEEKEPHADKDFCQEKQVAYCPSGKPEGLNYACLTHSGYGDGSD
row,Variant,effect of a mutation on the interaction
1,F102C,with no effect

# Variants of: B1
# Conditions: with rl11_human RPL11, P62913
row,Variant,effect of a mutation on the interaction
1,F102C,with no effect

# Variants of: B1
# Conditions: with rl5_human RPL5, P46777
row,Variant,effect of a mutation on the interaction
1,F102C,with no effect

# Variants of: B1
# Conditions: with rs15_human RPS15, P62841
row,Variant,effect of a mutation on the interaction
1,F102C,with no effect

# Variants of: B1
# Conditions: with rptor_human RPTOR
row,Variant,effect of a mutation on the interaction
1,F102C,with no effect

# Variants of: B1
# Conditions: with rxra_human RXRA
row,Variant,effect of a mutation on the interaction
1,F102C,with no effect

# Variants of: B1
# Conditions: with sdha_human SDHA
row,Variant,effect of a mutation on the interaction
1,F102C,with no effect

# Variants of: B1
# Conditions: with setbp_human SETBP1, Q9Y6X0
row,Variant,effect of a mutation on the interaction
1,F102C,with no effect

# Variants of: B1
# Conditions: with skp2_human SKP2, Q13309
row,Variant,effect of a mutation on the interaction
1,F102C,with no effect

# Variants of: B1
# Conditions: with smad1_human SMAD1, Q15797
# smad1_human SMAD1, Q15797, sequence (Q15797 whole entry): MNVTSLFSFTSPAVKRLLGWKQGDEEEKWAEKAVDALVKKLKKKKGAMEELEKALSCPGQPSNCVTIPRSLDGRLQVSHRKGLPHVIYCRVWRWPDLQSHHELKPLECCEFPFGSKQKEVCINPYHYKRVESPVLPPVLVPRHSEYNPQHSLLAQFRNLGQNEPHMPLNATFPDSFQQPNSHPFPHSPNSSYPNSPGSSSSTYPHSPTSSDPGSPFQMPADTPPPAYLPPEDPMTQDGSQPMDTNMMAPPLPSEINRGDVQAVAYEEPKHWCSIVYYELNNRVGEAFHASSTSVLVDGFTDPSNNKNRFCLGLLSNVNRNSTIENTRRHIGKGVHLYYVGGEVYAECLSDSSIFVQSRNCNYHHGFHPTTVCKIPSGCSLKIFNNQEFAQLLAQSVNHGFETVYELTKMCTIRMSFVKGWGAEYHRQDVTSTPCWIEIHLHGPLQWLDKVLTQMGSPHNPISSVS
row,Variant,effect of a mutation on the interaction
1,F102C,with no effect

# Variants of: B1
# Conditions: with smca4_human SMARCA4, P51532
row,Variant,effect of a mutation on the interaction
1,F102C,with no effect

# Variants of: B1
# Conditions: with snf5_human SMARCB1, Q12824
row,Variant,effect of a mutation on the interaction
1,F102C,with no effect

# Variants of: B1
# Conditions: with smo_human SMO
row,Variant,effect of a mutation on the interaction
1,F102C,with no effect

# Variants of: B1
# Conditions: with socs1_human SOCS1, O15524
# socs1_human SOCS1, O15524, sequence (O15524 whole entry): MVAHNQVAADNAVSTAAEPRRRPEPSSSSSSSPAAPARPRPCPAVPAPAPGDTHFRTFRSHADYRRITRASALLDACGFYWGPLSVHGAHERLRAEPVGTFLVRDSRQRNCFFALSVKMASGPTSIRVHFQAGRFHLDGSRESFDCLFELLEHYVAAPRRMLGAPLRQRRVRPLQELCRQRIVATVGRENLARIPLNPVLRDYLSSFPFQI
row,Variant,effect of a mutation on the interaction
1,F102C,with no effect

# Variants of: B1
# Conditions: with sox10_human SOX10, P56693
row,Variant,effect of a mutation on the interaction
1,F102C,with no effect

# Variants of: B1
# Conditions: with sox2_human SOX2, P48431
row,Variant,effect of a mutation on the interaction
1,F102C,with no effect

# Variants of: B1
# Conditions: with src_human SRC
row,Variant,effect of a mutation on the interaction
1,F102C,with no effect

# Variants of: B1
# Conditions: with whr1_human WHR1, P49842
# whr1_human WHR1, P49842, sequence (P49842 whole entry): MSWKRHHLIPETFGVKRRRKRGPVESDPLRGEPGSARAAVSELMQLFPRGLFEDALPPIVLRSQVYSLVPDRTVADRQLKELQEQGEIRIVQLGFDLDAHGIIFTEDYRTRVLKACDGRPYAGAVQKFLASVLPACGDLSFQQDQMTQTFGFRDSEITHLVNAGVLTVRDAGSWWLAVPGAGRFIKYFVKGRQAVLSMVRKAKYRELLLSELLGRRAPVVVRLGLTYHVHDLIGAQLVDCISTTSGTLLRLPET
row,Variant,effect of a mutation on the interaction
1,F102C,with no effect

# Variants of: B1
# Conditions: with stk38_human STK38, Q15208
row,Variant,effect of a mutation on the interaction
1,F102C,with no effect

# Variants of: B1
# Conditions: with eloc_human ELOC
row,Variant,effect of a mutation on the interaction
1,F102C,with no effect

# Variants of: B1
# Conditions: with tfe2_human TCF3, P15923
row,Variant,effect of a mutation on the interaction
1,F102C,with no effect

# Variants of: B1
# Conditions: with tead1_human TEAD1, P28347
row,Variant,effect of a mutation on the interaction
1,F102C,with no effect

# Variants of: B1
# Conditions: with tead3_human TEAD3, Q99594
row,Variant,effect of a mutation on the interaction
1,F102C,with no effect

# Variants of: B1
# Conditions: with tead4_human TEAD4, Q15561
# tead4_human TEAD4, Q15561, sequence (Q15561 whole entry): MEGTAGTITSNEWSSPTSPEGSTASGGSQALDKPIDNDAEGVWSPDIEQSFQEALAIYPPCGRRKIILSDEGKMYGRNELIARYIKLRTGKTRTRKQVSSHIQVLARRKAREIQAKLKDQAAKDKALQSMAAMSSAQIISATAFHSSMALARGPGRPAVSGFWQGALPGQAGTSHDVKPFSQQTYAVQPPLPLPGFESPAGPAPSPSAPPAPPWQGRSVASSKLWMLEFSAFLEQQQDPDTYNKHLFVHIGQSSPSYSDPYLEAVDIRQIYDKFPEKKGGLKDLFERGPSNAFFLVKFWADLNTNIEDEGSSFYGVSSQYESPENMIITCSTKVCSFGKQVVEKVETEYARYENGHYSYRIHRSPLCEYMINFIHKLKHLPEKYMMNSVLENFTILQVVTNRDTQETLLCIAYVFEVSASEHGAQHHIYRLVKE
row,Variant,effect of a mutation on the interaction
1,F102C,with no effect

# Variants of: B1
# Conditions: with tgfr2_human TGFBR2, P37173
# tgfr2_human TGFBR2, P37173, sequence (P37173 whole entry): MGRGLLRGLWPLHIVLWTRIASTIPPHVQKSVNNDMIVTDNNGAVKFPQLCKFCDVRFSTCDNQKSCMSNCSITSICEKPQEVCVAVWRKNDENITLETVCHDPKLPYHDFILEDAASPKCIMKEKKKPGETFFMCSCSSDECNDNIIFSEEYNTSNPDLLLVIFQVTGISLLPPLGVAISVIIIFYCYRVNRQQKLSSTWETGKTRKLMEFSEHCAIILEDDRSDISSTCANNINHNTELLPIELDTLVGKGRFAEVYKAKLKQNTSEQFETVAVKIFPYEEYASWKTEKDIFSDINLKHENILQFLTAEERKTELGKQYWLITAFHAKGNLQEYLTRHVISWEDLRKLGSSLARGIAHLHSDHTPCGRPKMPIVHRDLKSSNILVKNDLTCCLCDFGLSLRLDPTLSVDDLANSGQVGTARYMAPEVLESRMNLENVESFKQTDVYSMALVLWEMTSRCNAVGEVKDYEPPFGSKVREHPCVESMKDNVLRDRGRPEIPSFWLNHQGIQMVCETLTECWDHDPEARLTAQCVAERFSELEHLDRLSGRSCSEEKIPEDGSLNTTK
row,Variant,effect of a mutation on the interaction
1,F102C,with no effect

# Variants of: B1
# Conditions: with tnr14_human TNFRSF14, Q92956
row,Variant,effect of a mutation on the interaction
1,F102C,with no effect

# Variants of: B1
# Conditions: with tsc2_human TSC2, P49815
row,Variant,effect of a mutation on the interaction
1,F102C,with no effect

# Variants of: B1
# Conditions: with tshr_human TSHR
row,Variant,effect of a mutation on the interaction
1,F102C,with no effect

# Variants of: B1
# Conditions: with vegfa_human VEGFA
row,Variant,effect of a mutation on the interaction
1,F102C,with no effect

# Variants of: B1
# Conditions: with vhl_human VHL
row,Variant,effect of a mutation on the interaction
1,F102C,with no effect

# Variants of: B1
# Conditions: with wee1_human WEE1, P30291
row,Variant,effect of a mutation on the interaction
1,F102C,with no effect

# Variants of: B1
# Conditions: with wwtr1_human WWTR1, Q9GZV5
row,Variant,effect of a mutation on the interaction
1,F102C,with no effect

# Variants of: B1
# Conditions: with xpo1_human XPO1, O14980
row,Variant,effect of a mutation on the interaction
1,F102C,with no effect

# Variants of: B1
# Conditions: with igf1r_human IGF1R
row,Variant,effect of a mutation on the interaction
1,F102C,causing an interaction

# Variants of: B1
# Conditions: with etv1_human ETV1, P50549
row,Variant,effect of a mutation on the interaction
1,F102C,disrupting interaction strength

# Variants of: B1
# Conditions: with pk3ca_human PIK3CA
# Remark: another data set of the same source
row,Variant,effect of a mutation on the interaction
1,F102C,increasing interaction strength
